B1: Pleckstrin homology domain-containing family M member 1 (Homo sapiens), Q9Y4G2 (parent)
chain: MLSVVENGLDPQAAIPVIKKKLVGSVKALQKQYVSLDTVVTSEDGDANTMCSALEAVFIHGLHAKHIRAEAGGKRKKSAHQKPLPQPVFWPLLKAVTHKHIISELEHLTFVNTDVGRCRAWLRLALNDGLMECYLKLLLQEQARLHEYYQPTALLRDAEEGEFLLSFLQGLTSLSFELSYKSAILNEWTLTPLALSGLCPLSELDPLSTSGAELQRKESLDSISHSSGSEDIEVHHSGHKIRRNQKLTASSLSLDTASSSQLSCSLNSDSCLLQENGSKSPDHCEEPMSCDSDLGTANAEDSDRSLQEVLLEFSKAQVNSVPTNGLSQETEIPTPQASLSLHGLNTSTYLHCEAPAEPLPAQAASGTQDGVHVQEPRPQAPSPLDLQQPVESTSGQQPSSTVSETAREVGQGNGLQKAQAHDGAGLKLVVSSPTSPKNKSWISEDDFYRPSREQPLESASDHPIASYRGTPGSRPGLHRHFSQEPRKNCSLGALDQACVPSPGRRQAQAAPSQGHKSFRVVHRRQMGLSNPFRGLMKLGTVERRGAMGIWKELFCELSPLEFRLYLSNEEHTCVENCSLLRCESVGPAHSDGRFELVFSGKKLALRASSQDEAEDWLDRVREALQKVRPQQEDEWVNVQYPDQPEEPPEAPQGCLSPSDLLSEPAALQGTQFDWSSAQVPEPDAIKESLLYLYMDRTWMPYIFSLSLEALKCFRIRNNEKMLSDSHGVETIRDILPDTSLGGPSFFKIITAKAVLKLQAGNAEEAALWRDLVRKVLASYLETAEEAVTLGGSLDENCQEVLKFATRENGFLLQYLVAIPMEKGLDSQGCFCAGCSRQIGFSFVRPKLCAFSGLYYCDICHQDDASVIPARIIHNWDLTKRPICRQALKFLTQIRAQPLINLQMVNASLYEHVERMHLIGRRREQLKLLGDYLGLCRSGALKELSKRLNHRNYLLESPHRFSVADLQQIADGVYEGFLKALIEFASQHVYHCDLCTQRGFICQICQHHDIIFPFEFDTTVRCAECKTVFHQSCQAVVKKGCPRCARRRKYQEQNIFA
B2: ADP-ribosylation factor-like protein 8B (Homo sapiens), Q9NVJ2 (parent)
chain: MLALISRLLDWFRSLFWKEEMELTLVGLQYSGKTTFVNVIASGQFSEDMIPTVGFNMRKVTKGNVTIKIWDIGGQPRFRSMWERYCRGVNAIVYMIDAADREKIEASRNELHNLLDKPQLQGIPVLVLGNKRDLPNALDEKQLIEKMNLSAIQDREICCYSISCKEKDNIDITLQWLIQHSKSRRS

Legend:
[1] = variants of: B1; details: with arl8b_human ARL8B
[2] = variants of: B1; details: with rab7a_human RAB7A
[3] = variants of: B1; details: with arl8b_human ARL8B; remark: listed apart in the source
[4] = variants of: B1; details: with mlp3b_human MAP1LC3B
[5] = variants of: B1; details: with mlp3b_rat Map1lc3b
[6] = variants of: B2; details: with pkhm1_human PLEKHM1, Q9Y4G2

Variant	effect of a mutation on the interaction [1]	effect of a mutation on the interaction [2]	effect of a mutation on the interaction [3]	effect of a mutation on the interaction [4]	effect of a mutation on the interaction [5]	effect of a mutation on the interaction [6]
H60A	disrupting interaction strength	with no effect	decreasing interaction strength	–	–	–
H60A;R117A;R119A	disrupting interaction strength	with no effect	decreasing interaction strength	disrupting interaction strength	disrupting interaction strength	–
H63A	disrupting interaction strength	with no effect	with no effect	–	–	–
T34N	–	–	–	–	–	disrupting interaction strength
MLALISRLLDWFRSLFWKEEMELTLVGLQYSGKTTFVNVIASGQFSEDMIPTVGFNMRKVTKGNVTIKIWDIGGLPRFRSMWERYCRGVNAIVYMIDAADREKIEASRNELHNLLDKPQLQGIPVLVLGNKRDLPNALDEKQLIEKMNLSAIQDREICCYSISCKEKDNIDITLQWLIQHSKSRRS [Q75L]	–	–	–	–	–	with no effect

Further lines, results first:

effect of a mutation on the interaction [1]	effect of a mutation on the interaction [2]	effect of a mutation on the interaction [3]	effect of a mutation on the interaction [4]	effect of a mutation on the interaction [5]	effect of a mutation on the interaction [6]	Variant
disrupting interaction strength	with no effect	decreasing interaction strength	–	–	–	R117A;R119A
disrupting interaction strength	with no effect	–	–	–	–	R123A
